We go through five molecules from patent EP2319871A1 (Sanofi-Aventis, dated 2011).

In assay [1] the target is T1, RAGE-Fc (human, UniProt Q15109 23-342, limits assumed).
T1 construct: Format stated for the S100A12 and S100A6 ELISAs; also called hRAGE; not shown: Fc part, detected with anti-hIgG Fc-specific-POD
The assay is described as follows: competition ELISA, RAGE-S100A6 interaction (competitor S100A6).

The target of assay [2] is T2, sRAGE (V-C1-C2) lot LP08062 (human, UniProt Q15109 23-342).
T2 construct: extracellular domain; also called Human RAGE; LP08062 (Rage)
T2 sequence (Q15109 23-342): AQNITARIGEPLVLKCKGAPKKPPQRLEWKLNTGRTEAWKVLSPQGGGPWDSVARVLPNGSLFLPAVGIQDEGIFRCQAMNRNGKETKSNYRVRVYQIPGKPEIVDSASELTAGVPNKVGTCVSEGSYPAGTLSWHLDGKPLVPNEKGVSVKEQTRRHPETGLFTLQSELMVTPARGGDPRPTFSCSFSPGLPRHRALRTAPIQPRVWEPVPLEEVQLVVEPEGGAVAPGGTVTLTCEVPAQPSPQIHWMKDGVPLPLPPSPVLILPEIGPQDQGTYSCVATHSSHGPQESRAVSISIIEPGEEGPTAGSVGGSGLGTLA
In words: SPR (Biacore), mAb captured on anti-mouse Fc, sRAGE 15 nM, 1:1 Langmuir.

Assay [3] concerns the target T1, RAGE-Fc. The assay is described as follows: competition ELISA, RAGE-Fc 10 µg/mL + diluted mAb on coated S100A6 (competitor S100A6).
For assay [4], the target named is RAGE-Fc (human) (UniProt Q15109). The assay is described as follows: competition ELISA, mAb 10 µg/mL + RAGE-Fc 10 µg/mL on coated S100A6 (competitor S100A6).
Sequence of RAGE-Fc (human) (Q15109 23-342 limits assumed): as the sequence (Q15109 23-342) above

Where “and” joins values, the source holds several entries; their conditions need not be identical. Equal values may be shown once.

T1 sequence (Q15109 23-342 limits assumed): as the sequence (Q15109 23-342) above

B1: 56 RAGE-1 (antibody, V domains shown)
VH: QVQLQQSGPELVKPGASVRISCKASGYTFTSYFIHWVKQRPGQGLEWIGWIYPGNVNTKYNEKFKDKATLTADKSSSTAYMQLSNLTSEDSAVYFCVRGQLGDYWGQGITLTVSS
VL: DIVMTQSQKFMSTSVGDRVSVTCKASQNVGINVAWYQQKPGQSPKALIYSASYRYSGVPDRFTGSGSGTDFTLIISNVQSEDLAEYFCQQYNNYPRTFGGGTKLEIK
notes: Hybridoma monoclonal antibody, captured on anti-mouse Fc in Biacore; also called LP08103; Protein 56 RAGE-1
Consider B1, for which the IC50 in assay [1] was 7700 pM. In assay [2], this molecule yielded a Kd of 1870 pM, a koff of 0.00539 s⁻¹ and a kon of 2.89e+06 M⁻¹ s⁻¹. Further, the IC50 in assay [3] was 1.16 µg/mL and 7.73 nM.

B2: 152 RAGE-1 (antibody, V domains shown)
VH: DVQLQESGPDLVKPSQSLSLTCTVTGYSITSGYSWHWIRQFPGNKLEWMGYIHYSGSTNYNPSLKSRISITRDTSKNQFFLQLNSVTTEDTATYYCARGGDFAYWGQGTLVTVSA
VL: DIVLTQSPASLAVSLGQRATISCRASKSVGTSDSSYMHWYQQKPGQPPKLLIYLASNLESGVPARFSGSGSGTDFTLNIHPVEEEDAATYYCQHSRELYTFGGGTKLEIK
notes: Hybridoma monoclonal antibody, captured on anti-mouse Fc in Biacore; also called LP08104; Protein 152 RAGE-1
As for B2, in assay [2], the Kd was determined as 687 pM, the dissociation rate constant (koff) is 0.00265 s⁻¹ and the on-rate (kon) turned out to be 3.86e+06 M⁻¹ s⁻¹. In addition, in assay [4], the inhibitory effect is > 20%.

B3: 95 RAGE-1 (antibody, V domains shown)
VH: QVQLQQPGAELVKPGASVKLSCKASGYTFTSYWMHWVKQRPGQGLEWIGESNPSNGRTNYNEKFKNKATLTVDKSSSTAYMQLSSLTSEDSAVYYCARAPYYGFDYWGQGTTLTVSS
VL: QAVVTQESALTTSPGETVTLTCRSSTGAVTTSNYANWVQEKPDHLFTGLTGGTNNRAPGVPARFSGSLIGDKAALTITGAQTEDEAIYFCALWYSNHWVFGGGTKLTVL
notes: Hybridoma monoclonal antibody, captured on anti-mouse Fc in Biacore; also called Protein 95 RAGE-1
In assay [2], B3 returned a Kd of 462 pM, a koff of 0.00123 s⁻¹ and a kon of 2.66e+06 M⁻¹ s⁻¹.

B4: 140 RAGE-1 (antibody, V domains shown)
VH: QVQLQQPGAELVKPGASVRLSCKASGYTFTSYWMHWVKQRPGQGLEWIGEINPSNGRTNYNEKFKSKATLTVDKSSSTAYMQLSSLTSEDSAVYYCARDGLGYRPIAMDYWGQGTSVTVSS
VL: QIVLTQSPAIMSASPGEKVTISCSASSSVSYMYWYQQKPGSSPKPWIYRTSNLASGVPARFSGSGSGTSYSLTISSMEAEDAATYYCQQYHSYPPMYTFGGGTKLEIK
notes: Hybridoma monoclonal antibody, captured on anti-mouse Fc in Biacore; also called Protein 140 RAGE-1
For the molecule B4, in assay [2], the affinity, expressed as Kd, was 303 pM; the koff was 0.00157 s⁻¹; the kon is 5.19e+06 M⁻¹ s⁻¹.

B5: 130 RAGE-1 (antibody, V domains shown)
VH: EVQLVESGGGLVKPGGSLKLSCAASGFTFSSYVMSWVRQSPEKRLEWVAEISSGGSYTYYPDTVTGRFTISRDNDKNTLYLEMSSLRSEDTAMYYCARPPYGKDAMDYWGQGTSVTVSS
VL: QIVLTQSPAIMSASPGEKVTMTCSASSSVSYMHWYQQKSGTSPKRWISDTSKLASGVPARFSGSGSGTSYSLTISSMEAEDAATYYCQQWSSNPPTFGGGTKLEIK
notes: Hybridoma monoclonal antibody, captured on anti-mouse Fc in Biacore; also called Protein 130 RAGE-1
In assay [2], B5 registered a Kd of 236 pM, a koff of 0.00136 s⁻¹ and a kon of 5.76e+06 M⁻¹ s⁻¹.
